The assay has as its system M1 macrophages. The experiment in a line: Recombinant GCSF / CXCL3 co-administered with M1-polarizing cytokines. The assay is classed as cell-based, human. As to the method:
For detection of M1 and M2 macrophage markers, cultured cells were suspended then blocked by 20 μL/10^4 of FcR Blocking Reagent (Miltenyi Biotec, Cologne, Germany). Antibodies listed in Table 1 and isotype signal for normalization were listed in Table 3 were used at 5 μL per 10^5 cells.
Cell lysates for immunoblotting were prepared using an M-PER mammalian protein extraction kit containing protease and phosphatase inhibitor cocktail (Thermo-Fisher Scientific). Immunoblotting using the indicated antibodies (listed in Table 1) was performed as described previously (Lu et al., J Immunother Cancer, 2020).
Next, experiments were performed to analyze whether the genes altered by ON101 treatment in diabetic wounds could be produced by ADPCs upon ON101 treatment and focused on candidate genes detected in wound tissues in ON101-treated db/db mice (FIGS. 4E-4F). […] To test whether GCSF and CXCL3 might be involved in the marker switch between M1 and M2 macrophages, recombinant GCSF and CXCL3 proteins, with or without their neutralizing antibodies, were co-administrated with M1-polarizing cytokines. […] Both GCSF- and CXCL3-mediated inductions of M2a/c markers were abolished by the corresponding neutralizing antibodies (FIGS. 8G-8H). In addition, both GCSF and CXCL3 treatments activated Stat3 signaling pathways, whereas GCSF activated Akt phosphorylation, which was again abolished by their corresponding antibodies (FIG. 8I).

Where [1] appears, read: recombinant protein with M1-polarizing cytokines, 48 h.

Regarding “CXCL3: recombinant CXCL3 protein co-administrated with M1-polarizing cytokines”, the Stat3 signaling result (immunoblot) is “activated”. In addition, the CD163 expression result under setting [1] is listed as “only induced CD163 expression”.

B1: GCSF: recombinant GCSF protein co-administrated with M1-polarizing cytokines (protein, UniProt P09919 31-207, looked up)
Granulocyte …: TPLGPASSLPQSFLLKCLEQVRKIQGDGAALQEKLVSECATYKLCHPEELVLLGHSLGIPWAPLSSCPSQALQLAGCLSQLHSGLFLYQGLLQALEGISPELGPTLDTLQLDVADFATTIWQQMEELGMAPALQPTQGAMPAFASAFQRRAGGVLVASHLQSFLEVSYRVLRHLAQP
Turning to B1, for the setting “immunoblot”, the Akt phosphorylation entry is listed as “activated” and the Stat3 signaling entry is reported as “activated”. Further, under setting [1], the CD163 expression entry is given as “concentration-dependent increase” and the CD206 expression entry is reported as “concentration-dependent increase”.

For the origin of these results see patent US20230405070A1, “PLECTRANTHUS AMBOINICUS EXTRACT FOR USE IN INHIBITING IMMUNE RESPONSES” (Oneness Biotech Co., Ltd., priority 2022, published 2023).
